Data from publication PMC12136450 (PLOS Biology, 2025).

Legend:
[1] = target: T1, His-tagged Cpe1tox^C362A (catalytically inactive toxin domain) (Escherichia coli strain ATCC 11775, UniProt P0DXX9 338-479, C362A); test: BLI
T1 sequence: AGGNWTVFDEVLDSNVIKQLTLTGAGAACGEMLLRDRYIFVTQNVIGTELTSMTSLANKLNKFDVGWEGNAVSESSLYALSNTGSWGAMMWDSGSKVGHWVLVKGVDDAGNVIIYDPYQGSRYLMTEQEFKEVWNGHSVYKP

[2] = target: T2, His-tagged Cpe1tox^C362A (catalytically inactive toxin domain) (Escherichia coli strain ATCC 11775, UniProt P0DXX9 338-479, C362A); test: BLI; […]; 30 °C; PBS with 0.2% BSA, 0.02% Tween-20; association 150 s, dissociation 300 s; 1:1 global fit; conditions: both partners purified
T2 construct: not shown: His6, N-terminal, kept
T2 sequence: T1 sequence

[3] = target: ATPase domain of ParE, strep-tagged (E. coli); test: BLI; […]; 30 °C; PBS with 0.2% BSA, 0.02% Tween-20; association and dissociation 120 s; […]

B1: strep-tagged Cpi1 (wild type) (natural protein)
chain: MGIVFTNHNIDLLSVEFDEITKNCNYTFSVDGETAIFTARISIIRNIKGIKYSEELDKFIMSIMPLQPKVSKILGGVTWDCICGKEVGFPVRLIGK
notes: source: E. coli BL21 (DE3), pETDuet-1, purified (streptavidin resin, gel filtration)
For B1, the koff [1] was 0.00303 s⁻¹ and the Kd [2] was 8.58 nM.

B2: His-tagged Cpe1tox^C362A (catalytically inactive toxin domain) (domain or fragment)
chain: T1 sequence
B2 was tested, and the Kd [3] was 343 nM.

B3: ATPase domain of ParE, strep-tagged (domain or fragment)
chain: MTQTYNADAIEVLTGLEPVRRRPGMYTDTTRPNHLGQEVIDNSVDEALAGHAKRVDVILHADQSLEVIDDGRGMPVDIHPEEGVPAVELILCRLHAGGKFSNKNYQFSGGLHGVGISVVNALSKRVEVNVRRDGQVYNIAFENGEKVQDLQVVGTCGKRNTGTSVHFWPDETFFDSPRFSVSRLTHVLKAKAVLCPGVEITFKDEINNTEQRWCYQDGLNDYLAEAVNGLPTLPEKPFIGNFAGDTEAVDWALLWLPEGGELLTESYVNLIPTMQGGTHVNGLRQGLLDAMREFCEYRNILPRGVKLSAEDIWDRCAYVLSVKMQDPQFAGQTKERLSSRQCAAFVSGVVKDAFILWLNQNVQAAELLAEMAISSAQRRMRAAKKVVRKK
modifications: C-terminal strep tag left out. Limits are not given; 1-390 is taken from the 43-kDa ATPase domain in PDB 1S16 (390 aa), which the paper uses for ParE. The K-12 strain is inferred.
Work on B3 yielded a koff [1] of 0.47 s⁻¹.
